Assay results published in PMC5424161.

Details: O-GlcNAc at T241

Substance | degradation_or_half_life | other
YAP (Yes-associated protein): OGT knockdown (shRNA) | decreases | 
YAP (Yes-associated protein): T241A | decreases | increases
